How the values were obtained:
AtAbf43C [1] = molecular target: T1, AtAbf43C (Acetivibrio thermocellus, UniProt A3DHB3, D302A); test: pNP release at […] nm, activity relative to wild type; type: biochemical; conditions: 5 mM substrate, pH 5.5 sodium acetate, 65 °C, 10 min; catalytic residue
T1 construct: gene Cthe_2138; residues 21-511 of 580, no signal peptide or dockerin I domain, C-terminal LEHHHHHH tag, pET28b(+), E. coli BL21(DE3) Rosetta2

AtAbf43C [2] = molecular target: T2, AtAbf43C (Acetivibrio thermocellus, UniProt A3DHB3, E363A); test: as above; type: biochemical; conditions: 5 mM substrate, pH 5.5 sodium acetate, 65 °C, 10 min; catalytic residue
T2 construct: gene Cthe_2138; residues 21-511 of 580, no signal peptide or dockerin I domain, C-terminal LEHHHHHH tag, pET28b(+), E. coli BL21(DE3) Rosetta2
T2 sequence (A3DHB3 entry or part of it E363A): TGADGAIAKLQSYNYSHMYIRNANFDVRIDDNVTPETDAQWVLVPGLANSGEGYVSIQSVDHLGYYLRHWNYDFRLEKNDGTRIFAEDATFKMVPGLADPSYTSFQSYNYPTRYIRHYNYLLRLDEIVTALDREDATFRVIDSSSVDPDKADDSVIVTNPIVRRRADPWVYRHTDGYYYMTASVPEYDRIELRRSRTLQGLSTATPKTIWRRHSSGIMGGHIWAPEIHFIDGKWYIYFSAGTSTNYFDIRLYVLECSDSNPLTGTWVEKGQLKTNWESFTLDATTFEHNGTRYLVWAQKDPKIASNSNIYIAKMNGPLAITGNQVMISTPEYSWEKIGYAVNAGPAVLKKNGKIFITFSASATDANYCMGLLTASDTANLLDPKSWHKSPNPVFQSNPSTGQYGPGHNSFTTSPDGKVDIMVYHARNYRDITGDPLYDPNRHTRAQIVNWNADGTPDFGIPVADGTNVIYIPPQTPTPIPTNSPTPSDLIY

AtAbf43C [3] = molecular target: T3, AtAbf43C (Acetivibrio thermocellus, UniProt A3DHB3, D187A); test: as above; type: biochemical; conditions: 5 mM substrate, pH 5.5 sodium acetate, 65 °C, 10 min; catalytic residue
T3 construct: gene Cthe_2138; residues 21-511 of 580, no signal peptide or dockerin I domain, C-terminal LEHHHHHH tag, pET28b(+), E. coli BL21(DE3) Rosetta2
T3 sequence (A3DHB3 entry or part of it D187A): as the sequence (A3DHB3 entry or part of it E363A) above, with D167A, A343E counted along it

purified protein = substrate: O=[N+]([O-])c1ccc(O[C@@H]2O[C@@H](CO)[C@H](O)[C@H]2O)cc1; test: purified protein; type: biochemical, Acetivibrio thermocellus; conditions: pH 5.5, 100 mM sodium acetate, 65 °C, 2 min, 0.9-36 mM substrate, full saturation not achieved

T1 sequence (A3DHB3 entry or part of it D302A): as the sequence (A3DHB3 entry or part of it E363A) above, with D282A, A343E counted along it

O=[N+]([O-])c1ccc(O[C@@H]2O[C@@H](CO)[C@H](O)[C@H]2O)cc1 [pNPAra, para-nitrophenol-α-L-arabinofuranoside]
% activity relative to wildtype (AtAbf43C [1]): activity on pNPAra was completely eliminated in any of the versions | % activity relative to wildtype (AtAbf43C [2]): activity on pNPAra was completely eliminated in any of the versions | % activity relative to wildtype (AtAbf43C [3]): activity on pNPAra was completely eliminated in any of the versions

B1: AtAbf43C (Acetivibrio thermocellus ATCC 27405) (protein)
chain: TGADGAIAKLQSYNYSHMYIRNANFDVRIDDNVTPETDAQWVLVPGLANSGEGYVSIQSVDHLGYYLRHWNYDFRLEKNDGTRIFAEDATFKMVPGLADPSYTSFQSYNYPTRYIRHYNYLLRLDEIVTALDREDATFRVIDSSSVDPDKADDSVIVTNPIVRRRADPWVYRHTDGYYYMTASVPEYDRIELRRSRTLQGLSTATPKTIWRRHSSGIMGGHIWAPEIHFIDGKWYIYFSAGTSTNYFDIRLYVLECSDSNPLTGTWVEKGQLKTNWESFTLDATTFEHNGTRYLVWAQKDPKIASNSNIYIAKMNGPLAITGNQVMISTPEYSWEKIGYAVNEGPAVLKKNGKIFITFSASATDANYCMGLLTASDTANLLDPKSWHKSPNPVFQSNPSTGQYGPGHNSFTTSPDGKVDIMVYHARNYRDITGDPLYDPNRHTRAQIVNWNADGTPDFGIPVADGTNVIYIPPQTPTPIPTNSPTPSDLIY
notes: residues 21-511 of 580, no signal peptide or dockerin I domain, C-terminal LEHHHHHH tag, pET28b(+), E. coli BL21(DE3) Rosetta2
Km (purified protein): 22.7 ± 4.1 mM | kcat (purified protein): 269 ± 25.5 s⁻¹ | kcat/Km (purified protein): 11900 ± 2400 M⁻¹ s⁻¹

B2: AtAbf43C_GH43 (Acetivibrio thermocellus ATCC 27405) (protein)
chain: DPDKADDSVIVTNPIVRRRADPWVYRHTDGYYYMTASVPEYDRIELRRSRTLQGLSTATPKTIWRRHSSGIMGGHIWAPEIHFIDGKWYIYFSAGTSTNYFDIRLYVLECSDSNPLTGTWVEKGQLKTNWESFTLDATTFEHNGTRYLVWAQKDPKIASNSNIYIAKMNGPLAITGNQVMISTPEYSWEKIGYAVNEGPAVLKKNGKIFITFSASATDANYCMGLLTASDTANLLDPKSWHKSPNPVFQSNPSTGQYGPGHNSFTTSPDGKVDIMVYHARNYRDITGDPLYDPNRHTRAQIVNWNADGTPDFGIPVADGTNVIYIPPQ
notes: isolated GH43 catalytic domain, residues 167-494, no CBM42, cloned in pET28b(+) and IMAC-purified, E. coli BL21(DE3) Rosetta2
Km (purified protein): 59.6 ± 12.1 mM | kcat (purified protein): 238 ± 33.4 s⁻¹ | kcat/Km (purified protein): 4000 ± 1000 M⁻¹ s⁻¹
